The data set can be described thus: protein stability index of a GFP-peptide fusion (GPS, HEK-293T) (PSI 1-6); higher = more stable. As to conditions: c terminus: a fixed tail appended.

± gives the standard deviation.
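Note: 24-mer peptide tiles fused after GFP, lentivirally expressed, FACS-sorted into six equal bins by GFP/DsRed ratio, decoded by Illumina sequencing, PSI is the read-weighted mean bin number.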

For the sequence EDVKCQEDQKLQVLLTQIESKKHQ [TRIM15], the protein stability index by setting is: (treatment: DMSO) 5.12 ± 0.32; (treatment: MLN4924 1 uM, 8 h) 5.18 ± 0.1.

On to DCRYPYEYEGGHIKTAVNLPLERD [CDC25B], for which the protein stability index is, setting by setting: (treatment: DMSO) 4.13 ± 0.23; (treatment: MLN4924 1 uM, 8 h) 4.14 ± 0.63.

Consider TAGDRLTEFRKGAQSLPGPCAAAR [IRX6], for which the protein stability index was 4.01 ± 0.18 (treatment: DMSO) and 4.17 ± 0.58 (treatment: MLN4924 1 uM, 8 h).

For the sequence IIPQVPLFNILAKFNGITEKEYKT [USP39], the protein stability index came out at 2.41 ± 0.28 (treatment: DMSO) and 2.49 ± 0.28 (treatment: MLN4924 1 uM, 8 h).

As for KKTCRRINYCALNKPGCEHECVNM [MATN2], the protein stability index runs as follows: (treatment: DMSO) 2.8 ± 0.38; (treatment: MLN4924 1 uM, 8 h) 2.95 ± 0.74.

As to ALTGHLRTHSVIKEETNHSEMAED [IKZF1], the protein stability index (treatment: DMSO) came out at 5.38 ± 0.23 and the protein stability index (treatment: MLN4924 1 uM, 8 h) was found to be 5.13 ± 0.31.

On to RRRWCPAGIMLLALVCLLSCLLPS [SPACA3], for which the protein stability index by setting is: (treatment: DMSO) 2.85 ± 0.55; (treatment: MLN4924 1 uM, 8 h) 2.77 ± 0.3.

With GLIISGPILQEGMDEEKLKQLNCV [DLC1], the protein stability index is, setting by setting: (treatment: DMSO) 3.52 ± 0.2; (treatment: MLN4924 1 uM, 8 h) 3.42 ± 0.3.

Turning to RGFVFGGRYRDARMNDLHYLNLDT [KLHDC2], the protein stability index (treatment: DMSO) amounted to 2.71 ± 0.33 and the protein stability index (treatment: MLN4924 1 uM, 8 h) came to 2.59 ± 0.35.

Consider SSPSVSGPRRLVSCLSSQSSALSQ [SPACA3], for which the protein stability index runs as follows: (treatment: DMSO) 3.4 ± 0.27; (treatment: MLN4924 1 uM, 8 h) 3.52 ± 0.35.

Turning to GRNRLYHDGKNQPSKTYPAFLEPD [SPSB1], the protein stability index was 4.13 ± 0.12 (treatment: DMSO) and 4.37 ± 0.072 (treatment: MLN4924 1 uM, 8 h).

TYEKLSRAMRYYYKREILERVDGR [ELF3]: the protein stability index runs as follows: (treatment: DMSO) 2.21 ± 0.4; (treatment: MLN4924 1 uM, 8 h) 2.26 ± 0.37.

For PIRNRAFYMEEGVPYCERDYEKMF [PDLIM7], the protein stability index was determined as 3.3 ± 0.31 (treatment: DMSO) and 3.43 ± 0.34 (treatment: MLN4924 1 uM, 8 h).

Take NIQVTGSAALFYLTNSEYRSEQSV [ZER1]: the protein stability index was found to be 2.63 ± 0.24 (treatment: DMSO) and 2.84 ± 0.19 (treatment: MLN4924 1 uM, 8 h).

Consider LEVPKPGQPSEPEHGPSPGQDTFC [CHIT1], for which the protein stability index (treatment: DMSO) was 5.22 ± 0.17 and the protein stability index (treatment: MLN4924 1 uM, 8 h) worked out at 5.23 ± 0.19.

On to MAQPLCIRALLNLHTDVGSVRMRR [NEK8], for which the protein stability index runs as follows: (treatment: DMSO) 2.48 ± 0.16; (treatment: MLN4924 1 uM, 8 h) 2.58 ± 0.099.

Turning to QLGRALTAHLYSLLQTQHALGDAF [ARFIP2], the protein stability index by setting is: (treatment: DMSO) 3.25 ± 0.2; (treatment: MLN4924 1 uM, 8 h) 3.47 ± 0.57.

For the sequence PTPTSLEVSSPPDTTEEVDHKPKL [PDZK1], the protein stability index reads like this: (treatment: DMSO) 5.51 ± 0.18; (treatment: MLN4924 1 uM, 8 h) 5.54 ± 0.38.

With DYLIQATNETNVNIPQMADTLFER [SNAP91], the protein stability index stood at 3.64 ± 0.29 (treatment: DMSO) and 3.75 ± 0.2 (treatment: MLN4924 1 uM, 8 h).

Turning to LLAPEAGSHPQQTQKLEEIKENAQ [TOR1AIP2], the protein stability index came to 5.44 ± 0.097 (treatment: DMSO) and 5.47 ± 0.25 (treatment: MLN4924 1 uM, 8 h).

EVEKRGINGSEGDGAEIAEKFVFF [DYNC2LI1]: the protein stability index runs as follows: (treatment: DMSO) 3.8 ± 0.33; (treatment: MLN4924 1 uM, 8 h) 4.41 ± 0.34.

Take ISTSGQAGTSSHGCWAWPLAGLSV [PXN]: the protein stability index runs as follows: (treatment: DMSO) 2.33 ± 0.47; (treatment: MLN4924 1 uM, 8 h) 2.25 ± 0.26.

GLGASTAEISARTMQSMFAKNFHV [PTPRD]: the protein stability index was 2.38 ± 0.26 (treatment: DMSO) and 2.56 ± 0.35 (treatment: MLN4924 1 uM, 8 h).

As to YSALREESAKDWETSPLPGMLAPA [PPFIA4], the protein stability index (treatment: DMSO) was determined as 4.26 ± 0.23 and the protein stability index (treatment: MLN4924 1 uM, 8 h) amounted to 4.04 ± 0.21.

Take RRRRMETIVFLDKEVFASRISNPS [PCMTD2]: the protein stability index runs as follows: (treatment: DMSO) 2.57 ± 0.26; (treatment: MLN4924 1 uM, 8 h) 2.77 ± 0.38.

For RKSVPGPGNRTCTGTSKRYQLCRV [ADAMTSL2], the protein stability index came out at 2.91 ± 0.41 (treatment: DMSO) and 2.68 ± 0.093 (treatment: MLN4924 1 uM, 8 h).

As for LVGLATAAFGHVQRAEMLPKTSGT [CPOX], the protein stability index (treatment: DMSO) was found to be 2.9 ± 0.3 and the protein stability index (treatment: MLN4924 1 uM, 8 h) stood at 2.91 ± 0.14.

LRALKLVITALKCHKYDRNIQVTG [ZER1]: the protein stability index reads like this: (treatment: DMSO) 3.14 ± 0.42; (treatment: MLN4924 1 uM, 8 h) 3.16 ± 0.65.

Regarding ACAQLATGAACRLVEAVLSGEVLN [HDAC6], the protein stability index by setting is: (treatment: DMSO) 2.44 ± 0.53; (treatment: MLN4924 1 uM, 8 h) 2.65 ± 0.4.

Consider PSRKYISTKAIPEKYGAVREVILK [ZBED1], for which the protein stability index reads like this: (treatment: DMSO) 2.87 ± 0.18; (treatment: MLN4924 1 uM, 8 h) 2.92 ± 0.34.

With LEGALHQAKEELARMLREYQELMS [KRT71], the protein stability index reads like this: (treatment: DMSO) 2.98 ± 0.3; (treatment: MLN4924 1 uM, 8 h) 3.48 ± 0.46.

As to HLFLLGYSDGADDTFAAYTREQLY [MCOLN1], the protein stability index was 2.08 ± 0.29 (treatment: DMSO) and 2.35 ± 0.18 (treatment: MLN4924 1 uM, 8 h).

NEYLLNLVATNAHLDHYYQEELPA [FCHSD1]: the protein stability index runs as follows: (treatment: DMSO) 3.25 ± 0.11; (treatment: MLN4924 1 uM, 8 h) 3.27 ± 0.38.

Turning to RELDAISTNEEEKEENEAESDVKH [PRIM1], the protein stability index was 5.57 ± 0.17 (treatment: DMSO) and 5.62 ± 0.24 (treatment: MLN4924 1 uM, 8 h).

FHNLRNTLDGYGIHPKSIDLDNYF [NFE2L1] had a protein stability index (treatment: DMSO) of 2.31 ± 0.44 and a protein stability index (treatment: MLN4924 1 uM, 8 h) of 2.07 ± 0.15.

Take SWIKMTKLEYEEIALDLTPVIEEL [FAN1]: the protein stability index worked out at 2.83 ± 0.69 (treatment: DMSO) and 2.7 ± 0.53 (treatment: MLN4924 1 uM, 8 h).

Source of the values: the supplement of paper PMC10567573.
